The target of this experiment is rabbit muscle actin (rabbit) (UniProt P68135). Nature of the experiment: SPR; Biacore X100; rabbit muscle actin (10 ug/ml) covalently coupled to a CM5 chip by EDC/NHS, control lane without actin subtracted; formin fragments injected at 12.3 nM to 1 uM (1:3 serial dilution), 120 s injection, 600 s dissociation, 30 ul/min, 25 degrees; running buffer 10 mM HEPES pH 7.4, 150 mM NaCl, 3 mM EDTA, 10 mM MgCl2, 0.2 mM ADP, 0.5 mM DTT. A general note: SPR reads the build-up and loss of mass on a sensor chip optically.

A word on the Kd: it is the constant that tells how readily two partners part at equilibrium. Higher therefore signals a looser complex. Sequence “SYMBIOTIC FORMIN 1 (SYFO1) FH1FH2 domain (domain or fragment)” showed a Kd of 54.9 nM.

These data come from paper PMC8231094.
